{
  "source": "paper PMC11470960",
  "about": "(Immunity, 2024)",
  "binders": {"B1": {"name": "PLD3(V232M), soluble catalytic domain (enzyme, human)", "chain": "WEYGDLHLFGPNQRPAPCYDPCEAVLVESIPEGLDFPNASTGNPSTSQAWLGLLAGAHSSLDIASFYWTLTNNDTHTQEPSAQQGEEVLRQLQTLAPKGVNVRIAVSKPSGPQPQADLQALLQSGAQVRMVDMQKLTHGVLHTKFWVVDQTHFYLGSANMDWRSLTQVKELGMVMYNCSCLARDLTKIFEAYWFLGQAGSSIPSTWPRFYDTRYNQETPMEICLNGTPALAYLASAPPPLCPSGRTPDLKALLNVVDNARSFIYVAVMNYLPTLEFSHPHRFWPAIDDGLRRATYERGVKVRLLISCWGHSEPSMRAFLLSLAALRDNHTHSDIQVKLFVVPADEAQARIPYARVNHNKYMVTERATYIGTSNWSGNYFTETAGTSLLVTQNGRGGLRSQLEAIFLRDWDSPYSHDLDTSADSVGNACRLL"}},
  "key": {"[1]": {"target": "the molecule itself", "experiment": "SEC"}, "[2]": {"target": "T1, PLD3 (active) (Homo sapiens, UniProt Q8IV08 60-490)", "T1 sequence": "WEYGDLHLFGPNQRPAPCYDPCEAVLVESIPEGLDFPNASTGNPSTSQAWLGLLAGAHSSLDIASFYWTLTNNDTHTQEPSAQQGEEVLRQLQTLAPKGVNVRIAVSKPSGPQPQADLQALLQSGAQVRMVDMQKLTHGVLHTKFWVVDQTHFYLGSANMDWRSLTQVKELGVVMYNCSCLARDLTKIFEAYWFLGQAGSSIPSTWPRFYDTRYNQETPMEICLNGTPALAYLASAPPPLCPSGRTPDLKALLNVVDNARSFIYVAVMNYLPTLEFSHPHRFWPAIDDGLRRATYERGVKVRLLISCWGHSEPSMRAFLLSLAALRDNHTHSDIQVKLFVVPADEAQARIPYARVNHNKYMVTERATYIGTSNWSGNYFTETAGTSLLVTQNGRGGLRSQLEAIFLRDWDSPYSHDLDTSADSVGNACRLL", "experiment": "cryo-EM"}, "[3]": {"target": "T2, PLD3(H201N,H416N) (Homo sapiens, UniProt Q8IV08 60-490, H201N;H416N)", "T2 sequence": "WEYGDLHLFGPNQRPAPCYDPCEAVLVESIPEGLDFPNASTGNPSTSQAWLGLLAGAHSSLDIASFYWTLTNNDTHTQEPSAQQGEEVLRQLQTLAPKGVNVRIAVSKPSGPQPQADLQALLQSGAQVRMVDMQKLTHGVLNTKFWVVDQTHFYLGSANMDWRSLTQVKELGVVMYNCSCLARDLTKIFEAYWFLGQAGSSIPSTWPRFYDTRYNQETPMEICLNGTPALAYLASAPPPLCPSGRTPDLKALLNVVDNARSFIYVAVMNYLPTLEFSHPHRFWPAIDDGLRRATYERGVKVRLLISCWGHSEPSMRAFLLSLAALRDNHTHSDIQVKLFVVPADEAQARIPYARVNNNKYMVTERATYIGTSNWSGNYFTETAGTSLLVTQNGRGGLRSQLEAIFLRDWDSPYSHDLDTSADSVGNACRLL", "experiment": "fluorescence anisotropy"}},
  "data": [
    {"binder": "B1", "values": [
      {"measurement": "binding result", "setting": "[1]", "value": "binds"}
    ]},
    {"binder": "UCUCUCUCUCUCUCUCUCUC (ssRNA, phosphorothioate backbone)", "note": "[(rU*rC*)10 ssRNA]", "values": [
      {"measurement": "binding result", "setting": "[2]", "value": "binds"}
    ]},
    {"binder": "AGCUUAACCUG (ssRNA)", "note": "[RNA9.2s 11 nt]", "values": [
      {"measurement": "binding result", "setting": "[3]", "value": "no binding"}
    ]}
  ]
}
